The values below come from PMC7890179, “Adiponectin forms a complex with atherogenic LDL and inhibits its downstream effects” (Journal of Lipid Research, 2020).

Assay [1] has as its target copper-oxidized low density lipoprotein (human (endogenous in human plasma)). In words: ELISA; native LDL or oxLDL (1 μg/ml) captured on anti-apoB monoclonal antibody HUC20 on a 384-well plate; recombinant adiponectin added for 1 h at 25°C, washed with PBS, detected with anti-adiponectin polyclonal antibody; apparent Kd, 1:1 reversible binding assumed. Background: In an ELISA, binding on a coated surface is turned into a signal by an enzyme label.

Assay [2] has as its target copper-oxidized low density lipoprotein (human (endogenous in human plasma), oxidized with 7.5 μM CuSO4 for 16 h (residues not stated)). Described as above. Conditions: both partners purified.

Take “globular form of adiponectin protein with an N-terminal His-tag sequence (domain or fragment; other documents disagree on this pair)”: in assay [1], the Kd amounted to 45.3 nM.

B1: Human recombinant full-length adiponectin protein (composed of the LMW, MMW, and HMW isoforms) with a C-terminal FLAG sequence (natural protein, UniProt Q15848 19-244, looked up)
chain: ETTTQGPGVLLPLPKGACTGWMAGIPGHPGHNGAPGRDGRDGTPGEKGEKGDPGLIGPKGDIGETGVPGAEGPRGFPGIQGRKGEPGEGAYVYRSAFSVGLETYVTIPNMPIRFTKIFYNQQNHYDGSTGKFHCNIPGLYYFAYHITVYMKDVKVSLFKKDKAMLFTYDQYQENNVDQASGSVLLHLEVGDQVWLQVYGEGERNGLYADNDNDSTFTGFLLYHDTN
notes: adiponectin, human, full-length recombinant protein; A mixture of trimers (LMW), hexamers (MMW) and HMW multimers; Secreted from HEK293 cells, so the signal peptide is probably absent (surmised); also called AdN; human recombinant full-length AdN; source: bought: BioVendor cat. no; RD172023100, produced in HEK293 cells
For the molecule B1, in assay [2], the Kd stood at 15.7 nM.
